Blank lines part the entries; values can stand above or below the molecule they belong to.
Legend:
Human VEGF 165 [1] = biological target: T1, Human VEGF 165 (human, UniProt P15692-4 27-191); test: BLI, VEGF 165 on probe; sample aged 3 days at 37 °C; aged 3 days at 37 C (sample 1)
T1 construct: Loaded on the BLI probe as the ligand; also called BLI ligand Human VEGF 165 (Avi tag, R&D Systems AVI-293-050); not shown: Avi tag

Human VEGF 165 [2] = biological target: T1, Human VEGF 165; test: BLI, VEGF 165 on probe, conjugate as analyte, t = 0; t = 0, fresh conjugate, not aged
Human VEGF 165 [3] = biological target: T1, Human VEGF 165; test: BLI; KD after 3 days at 37 °C against KD at t = 0; fold change of KD, 3 days at 37 C against t = 0
Human VEGF 165 [4] = biological target: T1, Human VEGF 165; test: BLI, VEGF 165 on probe, t = 0 (repeats Table 15)
Human VEGF 165 [5] = biological target: T1, Human VEGF 165; test: BLI; KD after 3 days at 37 °C against KD at t = 0
Human VEGF 165 [6] = biological target: T1, Human VEGF 165; test: BLI; KD after 5 days at 37 °C against KD at t = 0
Human VEGF 165 [7] = biological target: T1, Human VEGF 165; test: BLI, VEGF 165 on probe, conjugate as analyte, t = 0
Target sequence in this assay (P15692 other isoform, or with tags, fused parts or gaps limits assumed): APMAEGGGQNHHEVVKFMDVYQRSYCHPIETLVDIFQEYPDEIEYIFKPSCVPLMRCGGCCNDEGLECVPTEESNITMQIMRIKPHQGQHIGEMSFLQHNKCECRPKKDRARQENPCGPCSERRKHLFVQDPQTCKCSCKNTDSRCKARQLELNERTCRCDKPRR

Human VEGF 165 [8] = biological target: T1, Human VEGF 165; test: BLI, VEGF 165 on probe; sample aged 3 days at 37 °C
Human VEGF 165 [9] = biological target: T1, Human VEGF 165; test: BLI, VEGF 165 on probe; sample aged 5 days at 37 °C
[10] = type: physicochemical
Protocol: 25× volumes of lysis buffer 25 mM HEPES, 20 mM imidazole, 400 mM sodium chloride, 0.5 mM EDTA, 5% glycerol, 0.01% Tween 20, pH 7.5 were added to E. coli pellets harvested from 25 mL TB culture, and sonicated 5× on ice at 40% output using a probe sonicator. Once lysed, whole cell extracts were clarified at 10K*g and 100 uL of supernatant were aliquoted and subjected to incubations at 50° C., 60° C., 70° C., and 80° C. for 15 minutes, followed by a ten-minute incubation on ice. Thermally precipitated proteins were removed at 10K*g for five minutes, and soluble extract fractions were combined directly with Laemmli sample buffer, denatured, and run on 4-20% SDS-PAGE to evaluate yield and stability.

Human VEGF 165 [11] = biological target: T1, Human VEGF 165; test: BLI; KD after 11 days at 37 °C against KD at t = 0
Human VEGF 165 [12] = biological target: T1, Human VEGF 165; test: BLI; KD after 32 days at 37 °C against KD at t = 0
Target sequence in this assay (P15692 other isoform, or with tags, fused parts or gaps limits assumed): as above

Human VEGF 165 [13] = biological target: T1, Human VEGF 165; test: BLI, VEGF 165 on probe; sample aged 32 days at 37 °C
Target sequence in this assay (P15692 other isoform, or with tags, fused parts or gaps limits assumed): as above

Human VEGF 165 [14] = biological target: T1, Human VEGF 165; test: BLI, VEGF 165 on probe, conjugate as analyte, t = 0; value is the limit of detection
Target sequence in this assay (P15692 other isoform, or with tags, fused parts or gaps limits assumed): as above

Human VEGF 165 [15] = biological target: T1, Human VEGF 165; test: BLI, VEGF 165 on probe, t = 0 (repeats Table 15); limit of detection; t = 0, fresh conjugate, not aged
Target sequence in this assay (P15692 other isoform, or with tags, fused parts or gaps limits assumed): as above

Human VEGF 165 [16] = biological target: T1, Human VEGF 165; test: BLI, VEGF 165 on probe; sample aged 11 days at 37 °C; limit of detection; aged 11 days at 37 C (sample 1)
Target sequence in this assay (P15692 other isoform, or with tags, fused parts or gaps limits assumed): as above

Human VEGF 165 [17] = biological target: T1, Human VEGF 165; test: BLI; KD after 14 days at 37 °C against KD at t = 0
Human VEGF 165 [18] = biological target: T1, Human VEGF 165; test: BLI; KD after 28 days at 37 °C against KD at t = 0
Human VEGF 165 [19] = biological target: T1, Human VEGF 165; test: BLI, VEGF 165 on probe; sample aged 28 days at 37 °C
Human VEGF 165 [20] = biological target: T1, Human VEGF 165; test: BLI, VEGF 165 on probe, t = 0 (repeats Table 15); limit of detection
Human VEGF 165 [21] = biological target: T1, Human VEGF 165; test: BLI, VEGF 165 on probe; sample aged 14 days at 37 °C; limit of detection
Human VEGF 165 [22] = biological target: T1, Human VEGF 165; test: BLI, VEGF 165 on probe, conjugate as analyte, t = 0; value is the limit of detection; t = 0, fresh conjugate, not aged
Human VEGF 165 [23] = biological target: T1, Human VEGF 165; test: BLI; KD after 4 days at 37 °C against KD at t = 0
Human VEGF 165 [24] = biological target: T1, Human VEGF 165; test: BLI, VEGF 165 on probe; sample aged 14 days at 37 °C
Human VEGF 165 [25] = biological target: T1, Human VEGF 165; test: BLI, VEGF 165 on probe; sample aged 4 days at 37 °C; limit of detection
Human VEGF 165 [26] = biological target: T1, Human VEGF 165; test: BLI, VEGF 165 on probe; sample aged 4 days at 37 °C
Human VEGF 165 [27] = biological target: T1, Human VEGF 165; test: BLI, VEGF 165 on probe; sample aged 11 days at 37 °C
Human VEGF 165 [28] = biological target: T1, Human VEGF 165; test: BLI, VEGF 165 on probe, conjugate as analyte

- Kd (Human VEGF 165 [1]): 0.557 nM
- Kd (Human VEGF 165 [2]): 0.184 nM
- Change in KD to t = 0 (Human VEGF 165 [3]): 3 fold
B1: Conjugate 8 (anti-VEGF E1-1 SEQ ID NO: 81 with aH linker SEQ ID NO: 21 on hyaluronic acid, intermediate 5-7) (VHH)
VHH: EVQLQASGGGFVQPGGSLRLSCAASGGGSDAGTMGWFRQAPGKEREFVSAISWAGTAWRYYADSVKGRFTISRDNSKNTVYLQMNSLRAEDTATYYCALGSYEMDHHYWGQGTQVTVSS
modifications: C-terminal Cys of the peptide linker bound by its thiol to the maleimide of the organic linker MP2H on hyaluronic acid (830 kDa)
notes: Multivalent peptide-hyaluronic acid conjugate (MVP); peptide valency 94; Method 5 intermediate; also called anti-VEGF E1-1 MVP (Method 5)

- Kd (Human VEGF 165 [4]): 1.04 nM
- Change in KD to t = 0 (Human VEGF 165 [5]): 7 fold
- Change in KD to t = 0 (Human VEGF 165 [6]): 21 fold
- Kd (Human VEGF 165 [7]): 1.04 nM
- Kd (Human VEGF 165 [8]): 6.75 nM
- Kd (Human VEGF 165 [9]): 21.9 nM
B2: Conjugate 11 (anti-VEGF E1-1 SEQ ID NO: 81 with aH linker SEQ ID NO: 21 on hyaluronic acid, intermediate 5-2) (VHH)
VHH: B1 VHH
modifications: C-terminal Cys of the peptide linker bound by its thiol to the maleimide of the organic linker MP2H on hyaluronic acid (830 kDa)
notes: Multivalent peptide-hyaluronic acid conjugate (MVP); peptide valency 47; Method 5 intermediate

B3: aTNFaMu_3MUT: anti-TNFα single domain antibody (mouse), aTNFaMu with three point mutations, SEQ ID NO: 72 (protein)
VHH: QVQLQESGGGLVQAGGSLRLSCAASGGTFSSIIMAWFRQAPGKEREFVGAVSWSGGTTVYADSVKGRFTISRDSARKSVYLQMNSLKPEDTAVYYCAARPYQKYNWASASYNVWGQGTQVTVSS
modifications: aTNF-a mu 3MUT
- thermal stability of the protein in E. coli cell extracts [10]: about 70 °C

- Change in KD to t = 0 (Human VEGF 165 [11]): 1 fold
- Change in KD to t = 0 (Human VEGF 165 [12]): 75 fold
- Kd (Human VEGF 165 [13]): 0.075 nM
- Kd (Human VEGF 165 [14]): < 1 pM
- Kd (Human VEGF 165 [15]): < 1 pM
- Kd (Human VEGF 165 [16]): < 1 pM
B4: Conjugate 1 (anti-VEGF DARPin SEQ ID NO: 92 on hyaluronic acid, intermediate 5-4) (designed binder)
chain: GSDLDKKLLEAARAGQDDEVRILMANGADVNARDSTGWTPLHLAAPWGHPEIVEVLLKNGADVNAADFQGWTPLHLAAAVGHLEIVEVLLKYGADVNAQDKFGKTAFDISIDNGNEDLAEILQKAAGGGSGGGS
modifications: peptide bound through the organic linker MP2H to hyaluronic acid (830 kDa); site of attachment not stated
notes: Multivalent peptide-hyaluronic acid conjugate (MVP); peptide valency 68; Method 5 intermediate (high EDC, N-acylurea adducts); also called DARPin MVP (Method 5)

- Change in KD to t = 0 (Human VEGF 165 [17]): 1 fold
- Change in KD to t = 0 (Human VEGF 165 [18]): 17 fold
- Kd (Human VEGF 165 [19]): 0.017 nM
- Kd (Human VEGF 165 [20]): < 1 pM
- Kd (Human VEGF 165 [21]): < 1 pM
- Kd (Human VEGF 165 [14]): < 1 pM
B5: Conjugate 2 (anti-VEGF DARPin SEQ ID NO: 92 on hyaluronic acid, intermediate 1-7) (designed binder)
chain: B4 chain
modifications: peptide bound through the organic linker MP2H to hyaluronic acid (830 kDa); site of attachment not stated
notes: Multivalent peptide-hyaluronic acid conjugate (MVP); peptide valency 117; Method 1 intermediate; also called DARPin MVP (Method 1)

- Kd (Human VEGF 165 [22]): < 1 pM
B6: Conjugate 15 (anti-VEGF VHH SEQ ID NO: 91 with aH linker SEQ ID NO: 21 on hyaluronic acid, intermediate 5-10) (VHH)
VHH: DVQLVESGGGLVQPGGSLRLSCAASGRTFSSYSMGWFRQAPGKEREFVVAISKGGYKYDAVSLEGRFTISRDNAKNTVYLQINSLRPEDTAVYYCASSRAYGSSRLRLADTYEYWGQGTLVTVSS
modifications: C-terminal Cys of the peptide linker bound by its thiol to the maleimide of the organic linker EMCH on hyaluronic acid (830 kDa)
notes: Multivalent peptide-hyaluronic acid conjugate (MVP); peptide valency 59; Method 5 intermediate 5-10, made with EMCH instead of MP2H; also called BI VHH anti-VEGF MVP

- Change in KD to t = 0 (Human VEGF 165 [23]): 1 fold
- Change in KD to t = 0 (Human VEGF 165 [17]): 3670 fold
- Kd (Human VEGF 165 [24]): 3.67 nM
- Kd (Human VEGF 165 [20]): < 1 pM
- Kd (Human VEGF 165 [25]): < 1 pM
- Kd (Human VEGF 165 [14]): < 1 pM
B7: Conjugate 18 (anti-VEGF VHH SEQ ID NO: 91 on hyaluronic acid, intermediate 1-7) (VHH)
VHH: B6 VHH
modifications: peptide bound through the organic linker MP2H to hyaluronic acid (830 kDa); site of attachment not stated
notes: Multivalent peptide-hyaluronic acid conjugate (MVP); peptide valency 88; Method 1 intermediate; also called BI VHH anti-VEGF MVP

- Change in KD to t = 0 (Human VEGF 165 [23]): 1 fold
- Change in KD to t = 0 (Human VEGF 165 [17]): 1440 fold
- Kd (Human VEGF 165 [24]): 1.44 nM
- Kd (Human VEGF 165 [20]): < 1 pM
- Kd (Human VEGF 165 [25]): < 1 pM
- Kd (Human VEGF 165 [14]): < 1 pM
B8: Conjugate 20 (anti-VEGF VHH SEQ ID NO: 91 on hyaluronic acid, intermediate 2-8) (VHH)
VHH: B6 VHH
modifications: peptide bound through the organic linker MP2H to hyaluronic acid (830 kDa); site of attachment not stated
notes: Multivalent peptide-hyaluronic acid conjugate (MVP); peptide valency 91; Method 2 intermediate; also called BI VHH anti-VEGF MVP

- Change in KD to t = 0 (Human VEGF 165 [23]): 654 fold
- Change in KD to t = 0 (Human VEGF 165 [11]): 648 fold
- Kd (Human VEGF 165 [26]): 0.654 nM
- Kd (Human VEGF 165 [27]): 0.648 nM
- Kd (Human VEGF 165 [20]): < 1 pM
- Kd (Human VEGF 165 [14]): < 1 pM
B9: Conjugate 16 (anti-VEGF VHH SEQ ID NO: 91 with aH linker SEQ ID NO: 21 on hyaluronic acid, intermediate 2-6) (VHH)
VHH: B6 VHH
modifications: C-terminal Cys of the peptide linker bound by its thiol to the maleimide of the organic linker MP2H on hyaluronic acid (830 kDa)
notes: Multivalent peptide-hyaluronic acid conjugate (MVP); peptide valency 101; Method 2 intermediate; also called BI VHH anti-VEGF MVP

- Kd (Human VEGF 165 [28]): 1.07 pM
B10: Conjugate 28 (N42 anti-VEGF VHH, HuNb42 A88P aH_CYS, SEQ ID NO: 145, on hyaluronic acid, Method B intermediate) (VHH)
VHH: QVQLVESGGGLVQPGGSLRLSCAASGFAYSTYSMGWFRQAPGKEREAVATINSGTFRLWYTDSVKGRFTISRDNSKNTLYLQMNSLRPEDTAVYYCAARAWSPYSSTVDAGDFRYWGQGTLVTVSS
modifications: C-terminal Cys bound by its thiol to the maleimide of the organic linker MP2H on hyaluronic acid (830 kDa)
notes: Multivalent peptide-hyaluronic acid conjugate; valency 129
